± gives the standard deviation of the averaged measurements.
These sequences were tested on ATP (assay: switch fluorescence ratio, 500 uM ATP over buffer (Cy3 cluster intensity, sum of 5 cycles each) (fold (ratio)); higher = stronger signal-on switching upon ATP binding; sequences stand for … in TCGTCGGCAGCGTCAGATGTGTATAAGAGACAGTTTTTTTTTTTTTTTTTTTTTTTTT…TC). Details: aptamer strand: ATP DNA aptamer (quencher-CACCTGGGGGAGTATTGCGGAGGAAGG + anchor), 100 nM annealed; ATP concentration: 500 uM.
Outline: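 Clusters carrying Cy3-labelled switching strands on a modified Illumina MiSeq flow-cell were annealed to 100 nM quencher-labelled ATP aptamer and imaged in selection buffer. They were imaged again after 15 min with 500 uM ATP at 22 °C, over five buffer/ATP cycles with NaOH stripping and re-annealing in between. For each cluster, the fluorescence ratio is the summed Cy3 intensity of the target cycles divided by that of the buffer cycles, averaged per switch-domain sequence. Clusters outside 100-1000 RFU were left out.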
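Note: ATP exposure 15 min at 22 °C before imaging.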

| Sequence | switch fluorescence ratio |
| --- | --- |
| ACAATTGCGT | 1.05 ± 0.024 |
| TGTTGGGACG | 1.1 ± 0.039 |
| ATGAGGCAGT | 1.12 ± 0.039 |
| TAACTTTCTT | 0.987 ± 0.025 |
| TAGGGCATTT | 1.03 ± 0.056 |
| AGTTAAAGAG | 1.01 ± 0.021 |
| TTTGGGAACT | 1 ± 0.021 |
| GCGCGATATT | 2.17 ± 0.21 |
| TGAGGGGAAG | 0.986 ± 0.021 |
| CGGTGTGAGG | 0.988 ± 0.031 |
| AAGGCAATTA | 1.15 ± 0.033 |
| CCCTAGGGTT | 1.44 ± 0.56 |
| GTAACAGGCG | 0.905 ± 0.021 |
| GGTAAGTAGG | 1.03 ± 0.042 |
| CAGGCTTTTT | 1 ± 0.029 |
| AGCAGGGAGC | 1.01 ± 0.021 |
| TTGGGGATAA | 1.07 ± 0.09 |
| TTGGACATGT | 0.989 ± 0.027 |
| GGGCAGGCTG | 1 ± 0.023 |
| TGTTGAAGGT | 1.02 ± 0.029 |
| AGATCGACGG | 1.014 ± 0.0095 |
| CAGTGGGTCT | 0.992 ± 0.017 |
| ATGTTGTTGG | 0.9676 ± 0.007 |
| ATATGGTGTT | 1.01 ± 0.025 |
| TAAGTTAATA | 1.02 ± 0.016 |

| Sequence | switch fluorescence ratio |
| --- | --- |
| CATTCGTCGG | 1.044 ± 0.0031 |
| CCAGGTTTGT | 1.17 ± 0.016 |
| CTTTGGGGGG | 0.982 ± 0.025 |
| GAATTCGGAA | 1.0486 ± 0.00049 |
| CGGGGGCTCC | 1.02 ± 0.021 |
| ATTTACCGGT | 1.03 ± 0.022 |
| ATAGTTGTGG | 0.977 ± 0.025 |
| CGTGATCAGA | 0.996 ± 0.039 |
| GTGAGGGAAC | 0.9729 ± 0.0052 |
| TGTTGTTACA | 0.99 ± 0.029 |
| ATATTAAGTC | 1.02 ± 0.013 |
| TTATACGGAG | 1.01 ± 0.025 |
| CATGGAGAGG | 1.02 ± 0.0086 |
| GTTGGGACGG | 0.9569 ± 0.006 |
| TGGGGAGATA | 1.01 ± 0.018 |
| GCCGCGTGCG | 1.06 ± 0.024 |
| TCAGACTTGC | 1 ± 0.035 |
| GAGCGAATAG | 1.46 ± 0.055 |
| GGGTAGTGCG | 0.9812 ± 0.0055 |
| CAGACCCCAT | 1.06 ± 0.035 |
| AGATCGGGTG | 1 ± 0.021 |
| ACAGACTATA | 1.094 ± 0.0097 |
| ATAGCTTGTG | 0.996 ± 0.023 |
| TGGGTAACGG | 0.999 ± 0.0039 |
| TAGGGAGGGA | 0.9801 ± 0.0069 |

| Sequence | switch fluorescence ratio |
| --- | --- |
| CAGGTCTTGA | 0.9888 ± 0.0014 |
| ACTAGGGTAT | 0.982 ± 0.061 |
| TAGTCAGTCG | 1.08 ± 0.11 |
| TTGGCATACG | 1.06 ± 0.034 |
| TTTCCCGTTT | 1.13 ± 0.095 |
| CTAAGATAGG | 1.01 ± 0.029 |
| ACAGGCGGCT | 1.1 ± 0.061 |
| TGTCGGAAAG | 0.985 ± 0.026 |
| ACGGTTGAG | 0.96 ± 0.036 |
| CGGTGAAAAT | 0.97 ± 0.027 |
| CGTATTGCGC | 0.971 ± 0.038 |
| CGCGGTATGG | 1.04 ± 0.022 |
| TGCGAGGTCA | 1.03 ± 0.022 |
| TTGGGGGAGA | 1.02 ± 0.038 |
| AGACTCAATG | 0.988 ± 0.07 |
| TGGGGGCGTG | 0.9502 ± 0.00056 |
| TTTTCTTTAA | 0.9798 ± 0.0051 |
| CTTGTATAGT | 0.9947 ± 0.0062 |
| CGACAAGAAC | 2.94 ± 0.18 |
| TCTGGCGGGG | 1.21 ± 0.38 |
| TGGGGCGTTG | 1.01 ± 0.019 |
| GTCGCGGGGT | 1.027 ± 0.0036 |
| TTATAGTGGG | 1 ± 0.022 |
| GGATTAGGGC | 1.02 ± 0.041 |
| GAGGGTGAGT | 0.9809 ± 0.0054 |

| Sequence | switch fluorescence ratio |
| --- | --- |
| ACTTTGCTAG | 1.03 ± 0.024 |
| TAAACACCTG | 1.02 ± 0.095 |
| TTAAAGTCGG | 1 ± 0.024 |
| GGAATGTGAA | 0.978 ± 0.019 |
| AACGTGGGTA | 1.01 ± 0.026 |
| TTTGTCTTGG | 0.972 ± 0.031 |
| ACATGATGTT | 1 ± 0.028 |
| TCTAATTGGG | 1.01 ± 0.037 |
| CGAGGGGGGG | 1.01 ± 0.025 |
| AAAGAAATTA | 0.997 ± 0.042 |
| TTTAGAGGGG | 1.02 ± 0.024 |
| CATAGTATTA | 0.958 ± 0.04 |
| TTAACTGTTT | 0.992 ± 0.019 |
| TCAATCTAAC | 1.35 ± 0.55 |
| ATCGTGTGTG | 0.991 ± 0.035 |
| TTTTTTTGTC | 1.02 ± 0.028 |
| TATGGTGAAG | 1 ± 0.024 |
| TGGCGGATTT | 0.998 ± 0.031 |
| GTTAGTGGCA | 0.984 ± 0.012 |
| CATTAAGGAG | 1.06 ± 0.092 |
| GTGTGGGGAT | 1 ± 0.044 |
| TAGTAGATTC | 1.005 ± 0.0054 |
| TAGGGTCGGT | 1 ± 0.041 |
| GTATTGGTTG | 0.983 ± 0.026 |
| TCTGTGGCTG | 1.05 ± 0.1 |

| Sequence | switch fluorescence ratio |
| --- | --- |
| TCTGGGGGTG | 1.02 ± 0.059 |
| AGGTGTGTAG | 0.99 ± 0.032 |
| AGGCTCATAG | 0.96982 ± 0.00072 |
| GAGTATCTGC | 1.01 ± 0.079 |
| TTAGTTTGCA | 1.02 ± 0.022 |
| GTATGTAAT | 0.997 ± 0.011 |
| AAACTATAGA | 1.01 ± 0.054 |
| GAGGGCTTGG | 1.05 ± 0.016 |
| GGTATTTAAA | 0.982 ± 0.029 |
| CTTAGACGTC | 0.948 ± 0.043 |
| ACCGTGGCGT | 1.0212 ± 0.001 |
| AGCGGTTTCG | 0.986 ± 0.023 |
| AATGGGGTTA | 0.997 ± 0.023 |
| CGTGTTTGCG | 0.985 ± 0.031 |
| GGTATTATTG | 0.998 ± 0.023 |
| AATATGGGGT | 1.01 ± 0.014 |
| TCGAATGGAT | 0.991 ± 0.011 |
| TTGGTCCGTG | 1.01 ± 0.071 |
| AGTTGGGGGC | 1 ± 0.079 |
| ATGTGTAAAG | 0.98 ± 0.017 |
| TTAAGGGATC | 0.957 ± 0.038 |
| ACGGTGTATG | 0.989 ± 0.031 |
| AGTTTTGTTT | 1.01 ± 0.02 |
| CCGGGGTAGA | 1.02 ± 0.023 |
| TTGTTCGTAG | 0.981 ± 0.034 |

| Sequence | switch fluorescence ratio |
| --- | --- |
| TCTTTCGGTG | 1.02 ± 0.04 |
| AGGGTCGGTA | 1.02 ± 0.033 |
| GGTTTGCTGT | 0.99034 ± 0.00027 |
| TGAAGGTTGG | 1.02 ± 0.025 |
| AAGCTGGCTG | 0.945 ± 0.029 |
| TAAGAGGTGT | 1.04 ± 0.062 |
| CAGGATTTTT | 0.993 ± 0.042 |
| ATTTTAATGA | 0.934 ± 0.028 |
| TTAAGGGATG | 1.03 ± 0.043 |
| GCACTTGTAA | 1.005 ± 0.0056 |
| TCATGGAGGT | 0.96 ± 0.03 |
| TGGGTCGGGA | 0.982 ± 0.031 |
| TTTCCACGGG | 1.18 ± 0.025 |
| GAGCGTAAGT | 0.958 ± 0.03 |
| TGTTCAGGTG | 3.38 ± 0.15 |
| GGGATCGCTA | 1 ± 0.018 |
| CTATCATAGT | 0.98 ± 0.032 |
| GTTTTAAGGT | 1.017 ± 0.0067 |
| TTTTTAATTG | 0.997 ± 0.024 |
| GTGACGAGTG | 0.993 ± 0.047 |
| GAAGGGCAGT | 0.966 ± 0.029 |
| TTACGGGAAT | 1.08 ± 0.1 |
| TACCCTTCGT | 1.11 ± 0.013 |
| ACGATGATCT | 1.06 ± 0.019 |
| CCTGGGGTTT | 1.09 ± 0.15 |

| Sequence | switch fluorescence ratio |
| --- | --- |
| CGGAGGGATC | 1.12 ± 0.037 |
| AGTTGTACTA | 0.9633 ± 0.0046 |
| ACAGTCTGAC | 1.0082 ± 0.00053 |
| ACGACTTTTT | 1.03 ± 0.063 |
| TGTTTGTTTC | 0.973 ± 0.033 |
| TATTTGAGA | 1.01 ± 0.019 |
| ACCTGAGGGG | 1.024 ± 0.0035 |
| ATAAAGAGGC | 0.978 ± 0.066 |
| AAAGCATAGG | 1.03 ± 0.015 |
| AAGAAAACTT | 1.042 ± 0.0089 |
| ATCCTTTCTT | 1.003 ± 0.0062 |
| GGTTTTGTCA | 1.01 ± 0.019 |
| CAAACCAGGA | 1.09 ± 0.07 |
| TTAGAACACA | 0.983 ± 0.0063 |
| CAGATAGGCT | 1.04 ± 0.019 |
| CTTAGTATAG | 0.998 ± 0.032 |
| CATGAATCTA | 0.98017 ± 0.00042 |
| CAGCGTATCA | 1.01 ± 0.0018 |
| GACCCTAAC | 1.14 ± 0.016 |
| TTGAATGGGG | 1.05 ± 0.043 |
| TTTTTAAATG | 0.991 ± 0.017 |
| CAGCGAGGAA | 1.014 ± 0.0091 |
| GATAGAAGTA | 0.9733 ± 0.0057 |
| TTGTAGTCTT | 0.991 ± 0.022 |
| CGGGGAGTGT | 1 ± 0.043 |

| Sequence | switch fluorescence ratio |
| --- | --- |
| TGGTTGGGAG | 1.01 ± 0.035 |
| GGGTTTGTAT | 0.979 ± 0.046 |
| TAAGGGGTGT | 1.03 ± 0.027 |
| TGTTGCCACG | 1 ± 0.0062 |
| TGCTTGTATT | 1.01 ± 0.027 |
| ATTTCGATGT | 1.03 ± 0.031 |
| TGGGCAAAGT | 0.9863 ± 0.0074 |
| AAGGCTGGGG | 0.9781 ± 0.0058 |
| CGACTGGGAG | 0.981 ± 0.026 |
| GCTGTAAGGG | 0.988 ± 0.028 |
| TTAGTTCCTT | 1.01 ± 0.024 |
| GGGAGGGGGC | 1.01 ± 0.075 |
| GCTAAAATTT | 1 ± 0.029 |
| TGGGGAAAAG | 1.09 ± 0.31 |
| AGTTATCGAC | 1.01 ± 0.021 |
| GGGAGGCATG | 0.936 ± 0.13 |
| CCATGTCAGC | 1.03 ± 0.021 |
| CGTTTCGCAG | 1.03 ± 0.068 |
| TTATTTGTTG | 0.971 ± 0.05 |
| AAAACGAGTG | 1.02 ± 0.023 |
| CTAAATTTTA | 0.989 ± 0.019 |
| GAGAATTATG | 0.9933 ± 0.0023 |
| AGGGTTGTGA | 1 ± 0.026 |
| TAGCGTTAGG | 1.029 ± 0.0049 |
| ACTGGATTGG | 1.01 ± 0.042 |

Source: the supplement of paper PMC10126150
